The record followed here is publication PMC11875312, “Hidden Structural States of Proteins Revealed by Conformer Selection with AlphaFold-NMR” (Research Square, 2025).

This data set deals with the molecule itself. Briefly: solution NMR structure (AlphaFold-NMR: AFsample models selected against NOESY and chemical shift data); homodimer models of CDK2AP1(61-115) scored against NOESY peak lists (including 3D X-filtered NOESY on a mixed sample of 50% [15N,13C]-labeled and 50% unlabeled CDK2AP1, recorded earlier, ref. 47; 124 further peaks picked here) and chemical shifts (BMRB 16808); validated by NOESY Double Recall.

B1: Cyclin-Dependent Kinase 2-Associated Protein 1 (residues 61-115) (domain or fragment, human, UniProt O14519 61-115, looked up)
chain: SKYAELLAIIEELGKEIRPTYAGSKSAMERLKRGIIHARGLVRECLAETERNARS
notes: Cyclin-Dependent Kinase 2-Associated Protein 1 (CDK2AP1), human, residues 61-115, the homodimeric four-helix bundle; The methods mention newly assigned H58 - K62 resonances, so the sample may carry residues (perhaps of a tag) before residue 61; also called CDK2AP1; CDK2AP1_(61–115)
For B1, the binding result was “binds”.
